Columns and labels:
mouse TfR1 protein = molecular target: T1, mouse TfR1 protein (Mus musculus, UniProt Q62351); assay: Staining of mouse glioblastoma paraffin-embedded tissue
T1 construct: from tissue; host or cells: murine glioma grown from murine glioma cells injected into c57/B6 mouse brain
Protocol: All procedures were performed according to the Columbia University Medical Center Institutional Animal Care and Use Committee. Murine glioma cell lines were created from tumor bearing mice. These tumors were generated by injection of a PDGF-IRES-Cre retrovirus into the subcortical white matter of mice with floxed PTEN and/or p53 (Sonabend et al., 2013). After mice reached end stage, the tumors were dissociated and primary cell cultures were created. These cells harbored the specific mutations of the original tumors, and could be re-injected to form gliomas in c57/B6 mice with high fidelity. Briefly, mice between the ages of 6-8 weeks received 50,000 murine glioma cells through stereotactic injection after being anesthetized with a ketamine/xylazine cocktail (87.5 mg/12.5 mg w/w). After cessation of toe-pinch reflex, the scalp was shaved and cleaned with serial use of betadine and 70% ethanol swabs. An incision was made and the skull was exposed. A burr hole was created, 2 mm anterior, 2 mm lateral and 2 mm deep to the right of the bregma. The cells were injected into the subcortical white matter over a period of 3 minutes (0.333 μL/min). Once the injection ceased, the needle was left in place for 1 minute before being slowly withdrawn. After tumor developed, brains were harvested and fixed in 4% paraformaldehyde and embedded in paraffin. 5 micron sections were made for staining.

[1] = system: A-673, SK-BR-3, Huh-7 and SK-LMS-1 cells; assay: Immunofluorescence staining in other cancer cell lines; format: cell-based, human; conditions: 1 μM RSL3, 4 h
Protocol: HT-1080 (ATCC Cat #CRL-7951, RRID:CVCL_0317), A-673, SK-BR-3, SK-LMS-1 and Huh-7 cells were treated with 1 μM RSL3 for 4 h, 15 μM erastin for 8 h, 10 μM IKE for 8 h, 15 μM FINO2 for 8 h, 10 μM FIN56 for 8 h, 100 μM tBuOOH for 8 h, 1 μM staurosporine (STS) for 6 h, 2 μM camptothecin (CPT) for 24 h, 1 μM RSL3+5 μM Fer-1 for 4 h and 10 μM IKE+5 μM Fer-1 for 8 h on poly-lysine-coated cover slips (Sigma Aldrich P4832) in 24-well plate. Media were taken out and the cells were gently washed with PBS^++ (PBS with 1 mM CaCl2) and 0.5 mM MgCl2) twice. The cells were fixed and permeabilized by adding 200 μL/well of 4% paraformaldehyde (PFA) in PBS with 0.1% Triton X-100 (PBT), and incubated at room temperature for 18 min. The cells were then washed with PBT three times. Then the cells were blocked with 5% goat serum (ThermoFisher 50197Z) in PBT for 1 h at room temperature. […] When applicable, line-scan analysis was performed on representative confocal microscopy images using Zeiss LSM software to qualitatively visualize fluorescence overlap.
The quantification of the intensity of antibodies was analyzed using CellProfiler 3.1.8 (Carpenter et al., 2006) (CellProfiler Image Analysis Software, RRID:SCR_007358). […] Then mean intensities and size areas of nuclei, cytoplasm and plasma membranes were then measured and reported. […]

T1 sequence (Q62351 whole entry): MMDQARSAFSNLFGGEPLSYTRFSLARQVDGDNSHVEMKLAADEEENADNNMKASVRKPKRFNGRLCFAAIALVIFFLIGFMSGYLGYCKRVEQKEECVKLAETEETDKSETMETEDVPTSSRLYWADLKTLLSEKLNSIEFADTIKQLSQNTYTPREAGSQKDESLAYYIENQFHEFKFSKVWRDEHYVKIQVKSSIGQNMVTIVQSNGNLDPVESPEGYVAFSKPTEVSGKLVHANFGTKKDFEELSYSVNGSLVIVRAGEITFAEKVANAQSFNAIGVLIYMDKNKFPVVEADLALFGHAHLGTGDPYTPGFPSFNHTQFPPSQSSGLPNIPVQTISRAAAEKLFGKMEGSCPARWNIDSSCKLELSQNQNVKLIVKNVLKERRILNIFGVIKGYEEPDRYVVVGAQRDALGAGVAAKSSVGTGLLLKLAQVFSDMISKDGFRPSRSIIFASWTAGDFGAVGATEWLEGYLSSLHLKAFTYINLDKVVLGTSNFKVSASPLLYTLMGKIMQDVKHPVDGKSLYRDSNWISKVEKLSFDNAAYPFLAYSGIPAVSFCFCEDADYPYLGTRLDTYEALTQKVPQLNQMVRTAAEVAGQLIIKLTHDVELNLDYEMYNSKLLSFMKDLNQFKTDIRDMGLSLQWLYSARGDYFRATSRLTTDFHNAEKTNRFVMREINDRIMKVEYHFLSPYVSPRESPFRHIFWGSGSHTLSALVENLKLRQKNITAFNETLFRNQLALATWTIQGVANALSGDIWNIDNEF

B1: 3F3-FMA: murine monoclonal IgG1 raised against ferroptotic membrane fractions; antigen is human transferrin receptor protein 1 (TfR1) (antibody, V domains shown)
VH: EVLLQQSGTELVRPGALVKLSCKASGFNIQDLYIHWVKQRPEQGLEWIGWIDPETDNTIYDPKFQGKASITADTSSNTAYLQLSSLTSEDTAMYYCSTGLLQWYFDVWGAGTAVTVSS
VL: DIVMTQSPSSLAMSIGQKVTMRCKSSQSLLNSYNQKNCLAWYQQKPGQSPKLLLYFVSTRESGVPDRFIGSGSGTDFTLTISSVQAEDLADYFCQQHYSTPLTFGAGTKLELK
For B1, the “recognition of TfR1 in mouse GBM tumor samples” value (mouse TfR1 protein) was “able to recognize mouse TfR1 protein” and the “staining upon ferroptosis induction” value [1] was “staining concentrated at the cell boundaries and became brighter”.

Source: patent publication US20220412989A1, “COMPOSITIONS AND METHODS FOR DETECTING CELLS UNDERGOING FERROPTOSIS USING AN ANTIBODY” (THE TRUSTEES OF COLUMBIA UNIVERSITY IN THE CITY OF NEW YORK, priority 2020, published 2022)
